Patent publication US20190367592A1 (AC IMMUNE, published 2019)

Key:
[1] = target: T1, recombinant human Tau monomer, 2N4R isoform (amino acids 2-441) (human, UniProt P10636-8 2-441); assay: SPR single-cycle, human Fab capture kit, Tau monomer analyte; mean ± range, n=2
T1 construct: range 2-441; N-terminal His-tag removed with TEV protease; also called monomeric Tau
Method: Affinity of the humanized antibody variants was measured at 25° C. using a Biacore T200 instrument, the GE Biacore human FAb capture kit, and a CM5 Series S chip. Antibodies were diluted to 1 μg/ml in HBSP (10 mM HEPES pH7.4, 150 mM NaCl, 0.05% Tween 20) and captured at a flow rate of 10 μl/min for 180 seconds. Kinetic data were collected for human Tau monomer injected at 1.2, 3.7, 11, 33 and 100 nM in HBSP using the Single Cycle Kinetics methodology and a flow rate of 30 μl/min. Each concentration of Tau monomer was injected for a period of 3 minutes and dissociation was monitored for ten minutes. Between cycles, the surface was regenerated with two sequential one-minute injections of 10 mM glycine pH2.1. Data was fit to a 1:1 binding model using BIAEvaluation software. Each antibody was analyzed twice within the experiment; data in Table 22 are shown as mean±range.

[2] = target: T1, recombinant human Tau monomer, 2N4R …; assay: SPR screen, hIgG captured, Tau monomer analyte
Source text: Antibody 125B11-H3 was humanized onto VH3 and Vκ1 consensus frameworks. The heavy chain graft included murine residues at position 78 (Kabat numbering system). The Vκ1 graft included murine residues in framework positions 43 and 87. The light chain of 113F5-F7 was also humanized onto the Vκ1 framework, with additional murine residues at framework positions 43 and 87. Humanized variant heavy chains (125B11) and light chains (125B11 and 113F5-F7) were co-transfected in multiple combinations and purified in 96-well format as described above. Humanized variants were then screened for affinity for human Tau monomer using the Biacore human IgG capture kit, a Series S CM5 chip and a Biacore T200 instrument. Antibodies were diluted to 2 μg/ml and captured for 15 seconds at 10 μl/min. Association and dissociation of 0, 100 and 500 nM human Tau monomer in HBSP was monitored for 180s and 300s respectively at a flow rate of 40 μl/min. A 1:1 binding model was applied to the results (Table 9).

[3] = target: T1, recombinant human Tau monomer, 2N4R …; assay: SPR high-resolution kinetics, hIgG1
[4] = target: T1, recombinant human Tau monomer, 2N4R …; assay: SPR, captured IgG, Tau monomer analyte, 1:1 model; fit-quality column: -
Method: Briefly, IgGs in 1 mL culuture were captured using tip columns that were custom packed with 20 μL MabSelect SuRe resin (Glygen Corp & GE Healthcare). After washing with 1×PBS pH 7.4, IgGs were eluted into 160 μL of 50 mM phosphoric acid pH 3 and neutralized with 12 μL of 20×PBS pH 11. MabSelect SuRe tip columns were stripped in 0.1 M NaOH and regenerated with 1×PBS pH 7.4 for consecutive use of up to 15 times. Purified antibodies in 96-well format were normalized to 0.1 mg/ml using a Hamilton Star liquid handling robot. The “pre-stress” samples were kept at approximately 4° C. and the “post-stress” samples were incubated at 40° C. for two weeks in a PCR machine. Functional stability of the variants was compared by running surface plasmon resonance kinetics experiments with the “pre-stress” and “post-stress” antibody preps. The antibodies were assessed using a human antibody capture CM5 Series S chip generated using the GE Biacore human IgG capture kit and a Biacore T200 instrument. Antibodies diluted to 2 μg/ml were immobilized using a 15 second injection time and 10 μl/min flow rate. Binding to Tau monomer at 0 nM, 26.5 nM and 265 nM, at 25° C., using a flow rate of 40 μl/min, was monitored for a 180 second association phase followed by a 300 second dissociation phase. Samples were run in 10 mM HEPES pH7.4, 150 mM NaCl, 0.05% Tween 20 (HBSP) using a multi-cycle kinetics format. Data was analyzed using BIAevaluation software, fitting a 1:1 binding model. The resulting affinity (KD) values are shown in FIG. 8A-D. A Stability Index was also calculated, using the rationale that affinity-compromised antibodies (due for example to deamidation of key residues) are expected to contribute equally to the IgG capture level (“Ligand Level”) but to contribute less to the measured Tau binding, and that this would be reflected in the experimentally derived value for Rmax. To account for variations in the amount of each antibody captured, Rmax was normalized for the antibody capture level (as measured by “Ligand Level”, Response Units immobilized during antibody capture). Thus Normalized Rmax is calculated as the experimental Rmax (units=RU) divided by the “Ligand Level” (Evaluation output representing the RU captured during the hIgG capture step, units=RU), and Stability Index is calculated here as Normalized Rmax (post-stress) divided by Normalized Rmax (pre-stress).

[5] = target: T1, recombinant human Tau monomer, 2N4R …; assay: SPR; Normalized Rmax post-stress (2 weeks 40 C) / pre-stress
Procedure, shortened: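 Antibodies purified by protein A tip columns were normalized to 0.1 mg/ml; pre-stress kept ~4° C., post-stress held at 40° C. for two weeks. IgG (2 μg/ml) was captured on an anti-human IgG CM5 chip, Tau monomer injected at 0, 26.5 and 265 nM, 25° C., in HBSP; KD from 1:1 fit.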

T1 sequence (P10636 other isoform, or with tags, fused parts or gaps limits assumed): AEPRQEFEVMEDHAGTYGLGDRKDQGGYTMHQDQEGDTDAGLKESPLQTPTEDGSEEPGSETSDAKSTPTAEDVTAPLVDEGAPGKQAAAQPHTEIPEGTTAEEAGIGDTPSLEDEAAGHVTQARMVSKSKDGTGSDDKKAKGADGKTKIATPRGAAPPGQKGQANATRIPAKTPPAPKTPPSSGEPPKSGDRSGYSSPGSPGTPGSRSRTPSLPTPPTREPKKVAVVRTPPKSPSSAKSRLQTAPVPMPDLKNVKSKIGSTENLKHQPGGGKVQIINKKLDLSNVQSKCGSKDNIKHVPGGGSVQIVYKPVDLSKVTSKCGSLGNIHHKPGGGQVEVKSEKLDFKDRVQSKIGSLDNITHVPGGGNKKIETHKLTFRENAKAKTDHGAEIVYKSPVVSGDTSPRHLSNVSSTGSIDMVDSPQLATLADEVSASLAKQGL

Binder | Kd [1] [nM] | koff [1] [s⁻¹] | kon [1] [M⁻¹ s⁻¹] | Kd [4] [nM] | Stability Index [5] [%] | also measured
hu37D3-H9.v1 hIgG1 (antibody, also called hu37D3.v1 hIgG1) heavy: not shown light: EDQLTQSPSSLSASVGDRVTITCRSSQSIVHSNGNTYFEWYQQKPGKSPKLLIYKVSNRFSGVPSRFSGSGSGTDFTLTISSLQPEDFATYYCFQGSLVPWTFGQGTKVEIKRTVAAPSVFIFPPSDEQLKSGTASVVCLLNNFYPREAKVQWKVDNALQSGNSQESVTEQDSKDSTYSLSSTLTLSKADYEKHKVYACEVTHQGLSSPVTKSFNRGEC | 2.3 | 0.001 | 600000 | – | – | –
hu125B11.v17 (HC3+LC1) (antibody, IgG1, V domains shown, also called hu125B11 HC3 + 125B11 LC1) VH: EVQLVESGGGLVQPGGSLRLSCAASRFIFSNYWMNWVRQAPGKGLEWVAQIRLKSDNYATHYAESVKGRFTISRDDSKNTLYLQMNSLRAEDTAVYYCTGGTTYWGQGTLVTVSS VL: DIQMTQSPSSLSASVGDRVTITCKASQNVGTAVAWYQQKPGKSPKLLIYSASIRYTGVPSRFSGSGSGTDFTLTISSLQPEDFATYFCQQFRTYPYTFGQGTKVEIK | – | – | – | – | – | Kd [2]: 18 nM; Kd [3]: 10.5 nM; koff [3]: 0.0008 s⁻¹; kon [3]: 80000 M⁻¹ s⁻¹
hu125B11.v28 (HC4+LC4) (antibody, IgG1, V domains shown, also called hu125B11 HC4 + 125B11 LC4) VH: EVQLVESGGGLVQPGGSLRLSCAASRFIFSNYWMNWVRQAPGKGLEWVAQIRLKSDNYATHYAESVKGRFTISRDNSKNTLYLQMNSLRAEDTAVYYCTGGTTYWGQGTLVTVSS VL: DIQMTQSPSSLSASVGDRVTITCKASQNVGTAVAWYQQKPGKAPKLLIYSASIRYTGVPSRFSGSGSGTDFTLTISSLQPEDFATYYCQQFRTYPYTFGQGTKVEIK | – | – | – | – | – | Kd [2]: 17 nM; Kd [3]: 10.2 nM; koff [3]: 0.0007 s⁻¹; kon [3]: 70000 M⁻¹ s⁻¹
hu125B11.v26 (HC4+LC2) (antibody, IgG1, V domains shown, also called hu125B11 HC4 + 125B11 LC2) VH: EVQLVESGGGLVQPGGSLRLSCAASRFIFSNYWMNWVRQAPGKGLEWVAQIRLKSDNYATHYAESVKGRFTISRDNSKNTLYLQMNSLRAEDTAVYYCTGGTTYWGQGTLVTVSS VL: DIQMTQSPSSLSASVGDRVTITCKASQNVGTAVAWYQQKPGKAPKLLIYSASIRYTGVPSRFSGSGSGTDFTLTISSLQPEDFATYFCQQFRTYPYTFGQGTKVEIK | – | – | – | – | – | Kd [2]: 14 nM; Kd [3]: 9.5 nM; koff [3]: 0.0007 s⁻¹; kon [3]: 70000 M⁻¹ s⁻¹
hu37D3-H9.v30.6 (antibody, V domains shown) VH: EVQLVESGGGLVQPGGSLRLSCAASGLIFRSYGMSWVRQAPGKGLEWVATINSGGTYTYYPDSVKGRFTISRDNSKNTLYLQMNSLRAEDTAVYYCANSYSGAMDYWGQGTLVTVSS VL: DDVLTQTPLSLPVTPGQPASISCRSSQSIVHSPGNTYFEWYLQKPGQSPQLLIYKVSNRFSGVPDRFSGSGSGTDFTLKISRVEAEDVGVYYCFQGSLVPWTFGQGTKVEIK | – | – | – | 19.1 | 270 | –
hu37D3.v39 hIgG4.YTE (antibody, V domains shown, hu37D3-H9.v1 with light chain F33L; also called hu37D3.v39 hIgG4.S228P.YTE) VH: EVQLVESGGGLVQPGGSLRLSCAASGLIFRSYGMSWVRQAPGKGLEWVATINSGGTYTYYPDSVKGRFTISRDNSKNTLYLQMNSLRAEDTAVYYCANSYSGAMDYWGQGTLVTVSS VL: EDQLTQSPSSLSASVGDRVTITCRSSQSIVHSNGNTYLEWYQQKPGKSPKLLIYKVSNRFSGVPSRFSGSGSGTDFTLTISSLQPEDFATYYCFQGSLVPWTFGQGTKVEIKR | 1.9 | 0.001 | 600000 | – | – | –
hu37D3.v28.A30 (antibody, V domains shown) VH: EVQLVESGGGLVQPGGSLRLSCAASGLIFRSYGMSWVRQAPGKGLEWVATINSGGTYTYYPDSVKGRFTISRDNSKNTLYLQMNSLRAEDTAVYYCANSYSGAMDYWGQGTLVTVSS VL: DVVMTQTPLSLPVTPGQPASISCRSSQSIVHSNGNTYLEWYLQKPGQSPQLLIYKVSNRFSGVPDRFSGSGSGTDFTLKISRVEAEDVGVYYCFQGSHVPWTFGQGTKVEIK | – | – | – | 34.4 | 77 | –
hu37D3-H9.v30.7 (antibody, V domains shown) VH: EVQLVESGGGLVQPGGSLRLSCAASGLIFRSYGMSWVRQAPGKGLEWVATINSGGTYTYYPDSVKGRFTISRDNSKNTLYLQMNSLRAEDTAVYYCANSYSGAMDYWGQGTLVTVSS VL: DDVLTQTPLSLPVTPGQPASISCRSSQSIVHSFGNTYFEWYLQKPGQSPQLLIYKVSNRFSGVPDRFSGSGSGTDFTLKISRVEAEDVGVYYCFQGSLVPWTFGQGTKVEIK | – | – | – | 34.9 | 93 | –
hu37D3-H9.v30.9 (antibody, V domains shown) VH: EVQLVESGGGLVQPGGSLRLSCAASGLIFRSYGMSWVRQAPGKGLEWVATINSGGTYTYYPDSVKGRFTISRDNSKNTLYLQMNSLRAEDTAVYYCANSYSGAMDYWGQGTLVTVSS VL: DDVLTQTPLSLPVTPGQPASISCRSSQSIVHSHGNTYFEWYLQKPGQSPQLLIYKVSNRFSGVPDRFSGSGSGTDFTLKISRVEAEDVGVYYCFQGSLVPWTFGQGTKVEIK | – | – | – | 36.4 | 63 | –
hu37D3-H9.v30.8 (antibody, V domains shown) VH: EVQLVESGGGLVQPGGSLRLSCAASGLIFRSYGMSWVRQAPGKGLEWVATINSGGTYTYYPDSVKGRFTISRDNSKNTLYLQMNSLRAEDTAVYYCANSYSGAMDYWGQGTLVTVSS VL: DDVLTQTPLSLPVTPGQPASISCRSSQSIVHSYGNTYFEWYLQKPGQSPQLLIYKVSNRFSGVPDRFSGSGSGTDFTLKISRVEAEDVGVYYCFQGSLVPWTFGQGTKVEIK | – | – | – | 31.4 | 105 | –
hu37D3.v40 hIgG4.YTE (antibody, V domains shown, hu37D3-H9.v1 with light chain G29T; also called hu37D3.v40 hIgG4.S228P.YTE) VH: EVQLVESGGGLVQPGGSLRLSCAASGLIFRSYGMSWVRQAPGKGLEWVATINSGGTYTYYPDSVKGRFTISRDNSKNTLYLQMNSLRAEDTAVYYCANSYSGAMDYWGQGTLVTVSS VL: EDQLTQSPSSLSASVGDRVTITCRSSQSIVHSNTNTYFEWYQQKPGKSPKLLIYKVSNRFSGVPSRFSGSGSGTDFTLTISSLQPEDFATYYCFQGSLVPWTFGQGTKVEIKR | 4.4 | 0.003 | 800000 | – | – | –
hu37D3.v41 hIgG4.YTE (antibody, V domains shown, hu37D3-H9.v1 with light chain N30Q; also called hu37D3.v41 hIgG4.S228P.YTE) VH: EVQLVESGGGLVQPGGSLRLSCAASGLIFRSYGMSWVRQAPGKGLEWVATINSGGTYTYYPDSVKGRFTISRDNSKNTLYLQMNSLRAEDTAVYYCANSYSGAMDYWGQGTLVTVSS VL: EDQLTQSPSSLSASVGDRVTITCRSSQSIVHSNGQTYFEWYQQKPGKSPKLLIYKVSNRFSGVPSRFSGSGSGTDFTLTISSLQPEDFATYYCFQGSLVPWTFGQGTKVEIKR | 5.4 | 0.005 | 900000 | – | – | –
